“Also recorded” adds a separate entry of the source.
Tests used:
[1] = tested on: mp53/Ras transformed cells and CAPAN-2 cells; experiment: Immunocompromised mouse tumorigenicity assay, cells expressing autophagy modulators; type: in vivo; details: cells expressing the protein or shRNA vs vector control, 5×10^5 cells per injection, 4 weeks mp53/Ras, 5 weeks CAPAN-2
Description: To determine whether cooperative up-regulation of autophagy is required for tumorigenesis Atg12, a gene involved in autophagosome formation, was knocked-down using two independent constructs in mp53/RasV12 and Capan-2 cells. In addition, a genetic rescue experiment was performed by introducing a shRNA resistant form of ATG12 into these cell backgrounds to test for ATG12 specificity of the observed effects. Tumor formation was inhibited by Atg12 KD in both mp53/Ras and CAPAN-2 cell lines and was rescued by expression of the exogenous shRNA resistant Atg12 (FIG. 4.5a, 4.5c).
Cells were cultured on 15 cm dishes for two days without selective antibiotics at 39 C for mp53/Ras cells and at 37 C for HT-29, CAPAN-2, PANC-1, and 5 Panc10.05. Cells were plated at the following densities: mp53/Ras—7.5×10^5, HT-29 —1.5×10^6, CAPAN-2 —4×10^6, PANC—4×10^6, and PANC 10.05—2×10^6. Cells were trypsinized, counted and re-suspended in RPMI medium lacking supplements for mp53/Ras, CAPAN-2, and Panc10.05, and DMEM lacking supplements for HT-29 and PANC-1 at a density of 5×10^5/100 ul for mp53/Ras and CAPAN-2 cells, 1.25×10^5/100 ul for HT-29 cells, 5×10^6/100 ul for PANC-1, 2×10^6/100 ul for Panc10.05. Matrigel (BD biosciences) was mixed with PANC-1 and Panc10.05 cell/medium mixture at a 1:1 ratio. Cell mixtures were then injected intra-dermally, bilaterally into the flanks of CD1-Foxn1 nude mice (Uracell) […]) in the following numbers: mp53/Ras cells, HT29 1.25×10^5 cells, 5×10^5 CAPAN-2-cells. Cell mixtures were injected intradermally, bilaterally into the flanks of NOD/SCID (UCAR-20060-166 (1)) mice in the following cell numbers per injection: PANC-1 —2.5×10^6 cells and Panc10.05 —1×10^6 cells. Tumor volume was measured every week for 4 weeks for mp53/Ras and HT-29 cells, 5 weeks for CAPAN-2 cells, and 6 weeks for PANC-1.

[2] = tested on: mp53/Ras transformed cells and CAPAN-2 cells; experiment: Immunoblot of p62 and LC3 in cells expressing autophagy modulators; type: cell-based; details: cells expressing the protein vs vector control
From the text: Thus, the effects of Plac8 KD on both tumor formation and autophagy can be suppressed by constitutive activation of Rab7.
(§1) Moreover, the molecular machinery employed in autophagosomal/lysosomal fusion, such as Rab7, is required for endosomal/lysosomal fusion, which is also required for tumor formation in some cancers.
To determine if the Plac8 KD-induced loss of tumor formation is specifically due to a loss of autophagy completion, Atg12, a gene required for autophagosomal formation, was overexpressed in Plac8 KD cells.
YAMC, vector, mp53, Ras, and mp53/Ras cells were cultured for two days at 39 C in RPMI with 10% FBS medium and gentamicin in collagen-I coated 15 cm dishes. HT-29, CAPAN-2, PANC-1 and Panc 10.05 cells were cultured for two days at 37 C in maintenance media without selective antibiotics on 15 cm dishes. […] Protein concentration was quantified using Bradford reagent (BioRad) and a Genesys 1 0UV spectrophotometer (Spectronic Unicam). […]

[3] = tested on: mp53/Ras transformed and CAPAN-2 cells; experiment: Endocytosis of fluorescently labeled dextran; type: cell-based; details: 50 uM Alexa-488 dextran for 1 hr; confocal microscopy and FACS
Description: as §1
Cells were plated at 2.5×10^5 cells for vector and Rab5a DN mp53/Ras cells on collagen-I coated 10 cm dishes, and 7.5×10^5 cells for vector and Rab5a DN CAPAN-2 cells on 10 cm dishes and allowed to proliferate for two days in maintenance media. Cells were then treated with 50 uM of Alexa-488 labeled 10,000 MW dextran (Invitrogen) for 1 hr in maintenance medium. The cells were then washed 3× with PBS and trypsinized. Cells were pelleted, resuspended in PBS with 1% BSA, transferred to FACS tubes (Falcon), and placed on ice. DAPI was added to a final concentration of […] and cells were FACS analyzed for Alexa-488 signal, with DAPI exclusion of dead cells. To image cells mp53/Ras and CAPAN-2 cells infected with vector control virus or stabily expressing Rab5a DN were plated onto glass coverslips as described in the immunofluorescent staining of cells section. Cells were then treated with 50 uM of Alexa-488 labeled 10,000 MW dextran for 1 hr in maintenance medium. The media containing dextran was removed and the cells were washed 3 times with PBS. […]

B1: Atg12: over-expressed 3× Flag-tagged Atg12, a gene required for autophagosomal formation (protein, UniProt O94817 1-140, looked up)
Ubiquitin-like protein ATG12: MAEEPQSVLQLPTSIAAGGEGLTDVSPETTTPEPPSSAAVSPGTEEPAGDTKKKIDILLKAVGDTPIMKTKKWAVERTRTIQGLIDFIKKFLKLVASEQLFIYVNQSFAPSPDQEVGTLYECFGSDGKLVLHYCKSQAWG
modifications: 3x Flag tag
notes: over-expressed 3× Flag-tagged Atg12, a gene required for autophagosomal formation
[1]
  tumor formation in nude mice: tumor inhibitory; also recorded: inhibits tumor formation
[2]
  p62 and LC3 protein levels: p62 and LC3 protein levels were suppressed

B2: Rab5a DN: 3× Flag-tagged Rab5a S34N dominant negative mutant, inhibitor of endocytosis (protein, UniProt P20339 1-215, looked up, variant S34N)
Ras-related protein Rab-5A: MASRGATRPNGPNTGNKICQFKLVLLGESAVGKNSLVLRFVKGQFHEFQESTIGAAFLTQTVCLDDTTVKFEIWDTAGQERYHSLAPMYYRGAQAAIVVYDITNEESFARAKNWVKELQRQASPNIVIALSGNKADLANKRAVDFQEAQSYADDNSLLFMETSAKTSMNVNEIFMAIAKKLPKNEPQNPGANSARGRGVDLTEPTQPTRNQCCSN
modifications: 3x Flag tag
[1]
  tumor formation in nude mice: increased tumor size over vector control
[1]; listed as DN Rab5a
  tumor formation in nude mice: slightly enhanced tumor formation in transformed YAMC cells and no effect on Capan-2 cells
[2]
  p62 and LC3 protein levels: no effect on p62 or LC3 levels
[3]
  endocytosis of Alexa488 labeled dextran: inhibits endocytosis of Alexa488 labeled dextran

Source: patent US20130184223A1, “METHODS AND COMPOSITIONS RELATED TO MODULATING AUTOPHAGY” (UNIVERSITY OF ROCHESTER, priority 2010, published 2013)
